The text below walks through data of publication PMC5716189 (Nucleic Acids Research, 2017).

Holding throughout (settings): both partners purified
In test [1] the target is T1, APLF FHA domain (forkhead-associated domain of aprataxin and PNKP-like factor) (human, UniProt Q8IW19 1-105).
T1 sequence: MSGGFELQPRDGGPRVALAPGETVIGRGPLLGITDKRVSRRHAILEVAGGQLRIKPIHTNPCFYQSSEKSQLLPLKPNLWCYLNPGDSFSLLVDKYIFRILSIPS
Put plainly: NMR titration; 2D 1H,15N-HSQC of 0.1 mM U-[15N] APLF-FHA as a function of phosphopeptide concentration (0–800 μM); 25 mM HEPES, 25 mM MES, 150 mM NaCl, 1 mM EDTA, pH 7.4; 35°C; lineshape simulation (two-site exchange) for Kd and τB of the 18-residue peptide.

Test [2] deals with T1, APLF FHA domain (forkhead-associated …). Put plainly: fluorescence polarisation; pH 7.4; apparent dissociation constants; FITC-Gly-Gly-labelled peptide with APLF FHA; 25 mM HEPES, 25 mM MES, 150 mM NaCl, 1 mM EDTA, 2 mM DTT, 0.05% Tween 20; room temperature; single-site fit.
The target is the same in test [3]. The test is described as follows: fluorescence polarisation; pH 5.5; apparent dissociation constants; FITC-Gly-Gly-labelled peptide with APLF FHA; 25 mM HEPES, 25 mM MES, 150 mM NaCl, 1 mM EDTA, 2 mM DTT, 0.05% Tween 20; room temperature; single-site fit. On the technique in general: Polarisation of emitted light reports the rotation of a fluorescent probe.
Test [4] has the same target. Put plainly: fluorescence polarisation; pH 6.0; apparent dissociation constants; FITC-Gly-Gly-labelled peptide with APLF FHA; 25 mM HEPES, 25 mM MES, 150 mM NaCl, 1 mM EDTA, 2 mM DTT, 0.05% Tween 20; room temperature; single-site fit.
For test [5] the target is unchanged. The test is described as follows: fluorescence polarisation; pH 6.5; apparent dissociation constants; FITC-Gly-Gly-labelled peptide with APLF FHA; 25 mM HEPES, 25 mM MES, 150 mM NaCl, 1 mM EDTA, 2 mM DTT, 0.05% Tween 20; room temperature; single-site fit.
Test [6] has the same target. Put plainly: fluorescence polarisation; pH 7.0; apparent dissociation constants; FITC-Gly-Gly-labelled peptide with APLF FHA; 25 mM HEPES, 25 mM MES, 150 mM NaCl, 1 mM EDTA, 2 mM DTT, 0.05% Tween 20; room temperature; single-site fit.
For test [7] the target is unchanged. The test is described as follows: NMR titration; 2D 1H,15N-HSQC of 0.1 mM U-[15N] APLF-FHA as a function of phosphopeptide concentration (0–800 μM); 25 mM HEPES, 25 mM MES, 150 mM NaCl, 1 mM EDTA, pH 7.4; 35°C; lineshape simulation (two-site exchange) for Kd and τB of the 18-residue peptide. This is another data set of the same source.
Test [8] shares this target. Put plainly: crystal structure; sitting drop vapor diffusion, 20°C; APLF FHA 9–10 mg/ml with peptide at a 1:1 peptide:protein ratio.

Square brackets hold non-standard residues; d marks the D form. Ends that are not written are not given here. * marks the point of attachment. FITC = O=C1OC2(c3ccc(O)cc3Oc3cc(O)ccc32)c2ccc(NC(=S)*)cc21; pT = C[C@@H](OP(=O)(O)O)[C@H](N)C(=O)O; pS = N[C@@H](COP(=O)(O)O)C(=O)O

B1: XRCC1_(pSpT-18) diphosphopeptide, unlabelled (NMR studies) (peptide)
peptide: DPYAG[pS][pT]DENTDSEEHQE
With B1, the Kd in test [1] is 4 µM.

B2: FITC-Gly-Gly-XRCC1_(pSpT-24) diphosphopeptide (peptide)
peptide: {FITC}-GGQEENGEDPYAG[pS][pT]DENTDSEEHQE
As for B2, the Kd in test [2] came to 0.16 ± 0.02 µM; in test [3], 6.65 ± 2.35 µM; in test [4], 3.65 ± 0.91 µM; in test [5] it was 0.32 ± 0.09 µM; in test [6] it was 0.2 ± 0.03 µM.

B3: FITC-Gly-Gly-XRCC1_(pSpTEE-18) diphosphopeptide (peptide)
peptide: {FITC}-GGDPYAG[pS][pT]DENEDEEEHQE
As for B3, the Kd in test [2] turned out to be 0.3 ± 0.07 µM.

B4: XRCC1_(pSpT-9) diphosphopeptide (peptide)
peptide: PYAG[pS][pT]DEN
Regarding B4, the Kd in test [7] is 80 µM.

B5: XRCC1_(EpT-9) monophosphopeptide (peptide)
peptide: PYAGE[pT]DEN
B5: in test [8], the binding result is recorded as “binds”.
